This is an account of results in paper PMC6536566.

The assay has as its target VC-OsSLAC1 (rice (Oryza sativa)). Kind of assay: split reporter (BiFC, NanoBiT); BiFC with Venus halves (VN, VC) co-expressed in rice protoplasts; confocal microscopy; ER-mCherry as internal control, Venus signal/mCherry signal.

B1: VN-SAPK10 (natural protein)
chain: MDRAALTVGPGMDMPIMHDGDRYELVRDIGSGNFGVARLMRSRADGQLVAVKYIERGDKIDENVQREIINHRSLRHPNIIRFKEVILTPTHLAIVMEYASGGELFERICNAGRFSEDEARFFFQQLISGVSYCHSMQVCHRDLKLENTLLDGSTAPRLKICDFGYSKSSVLHSQPKSTVGTPAYIAPEVLLKKEYDGKIADVWSCGVTLYVMLVGAYPFEDPDEPKNFRKTIQRILGVQYSIPDYVHISPECRDLIARIFVANPATRISIPEIRNHPWFLKNLPADLMDDSKMSSQYEEPEQPMQSMDEIMQILAEATIPAAGSGGINQFLNDGLDLDDDMEDLDSDPDLDVESSGEIVYAM
Take B1: the BiFC fluorescence (Venus signal/mCherry signal) relative to VN-Hd3A with VC-SLAC1 turned out to be 3 fold.
